In US20230416329A1, “A PEPTIDE WITH DISULFIDE BONDS AND INHIBITORY ACTIVITY AGAINST SERINE PROTEASES, DERIVED HYBRID PEPTIDES THEREOF, AND USES THEREOF” (INSTITUTE OF MATERIA MEDICA , CHINESE ACADEMY OF MEDICAL …, priority 2020, published 2023):

What was measured:
PCSK9 protein = PCSK9 protein (UniProt Q8NBP7); test: PCSK9-LDLR in vitro binding assay kit, OD450/540; peptide 50 µM, PCSK9 75 ng/mL; inhibition of PCSK9 binding to LDLR
[1] = target: bovine trypsin (bovine), P00760; test: cell-based or functional assay
Chain of bovine trypsin (bovine), P00760 (P00760 24-246): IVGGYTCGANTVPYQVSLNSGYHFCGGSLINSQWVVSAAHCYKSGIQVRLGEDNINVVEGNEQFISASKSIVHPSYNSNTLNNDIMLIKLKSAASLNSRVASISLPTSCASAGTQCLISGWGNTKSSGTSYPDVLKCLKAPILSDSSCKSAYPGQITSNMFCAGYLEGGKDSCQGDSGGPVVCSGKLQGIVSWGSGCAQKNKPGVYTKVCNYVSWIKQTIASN

| Inhibitory rate (%) (PCSK9 protein) | residual trypsin activity at 0.0000098 µM BT1 [1] [%] | residual trypsin activity at 0.000098 µM BT1 [1] [%] | residual trypsin activity at 0.00098 µM BT1 [1] [%] | residual trypsin activity at 0.02439 µM BT1 [1] [%] | residual trypsin activity at 0.0488 µM BT1 [1] [%] | residual trypsin activity at 0.098 µM BT1 [1] [%] | residual trypsin activity at 0.98 µM BT1 [1] [%] | residual trypsin activity at 9.76 µM BT1 [1] [%] | Binder |
| --- | --- | --- | --- | --- | --- | --- | --- | --- | --- |
| 15.8 |  |  |  |  |  |  |  |  | GTNEALDNNCGRATKSIPPICFTVFTS [PCSK9_13] |
|  | 102 | 102 | 101 | 69.6 | 24.1 | 3.3 | 0 | 0 | GRCTKSIPPICFPD (modifications not checked) [BT1] |
